{"source": "paper PMC4674489", "biological_target": "GST-PTN(60-110) fusion protein (human)", "sequence (P21246 60-110)": "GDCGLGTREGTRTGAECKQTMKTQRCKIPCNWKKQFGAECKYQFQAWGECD", "experiment": "pull-down"}
{"substance": "Neuropilin-1 (NRP-1), endogenous (from UniProt O14786 22-923) (receptor)", "values": [{"measurement": "NRP-1 pulled down, percent of that with GST-PTN(1-136)", "value": 45, "unit": "%"}]}
